B1: ZNF263 (parent)
chain: FAHSSNLLRHQRIHTGERPYKCPE
B2: POMT2 (parent)
chain: VLRSRIRFIHLVTGCVLGSSGKVL

Variants of: B1
Assay: protein stability index of a GFP-peptide fusion (GPS, HEK-293T) (PSI 1-6); higher = more stable
Conditions: c terminus: a fixed tail appended
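Note: lentivirally expressed fusions sorted by FACS into six bins by GFP to DsRed ratio, PSI derived from sequencing read proportions per bin multiplied by bin number.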

| Variant | protein stability index |
| --- | --- |
| FAHSSNLLRHQRIHTGERPYKTPE [C22T] | 2.03 |
| FAHSSNLLRHQRIHTGERPYKVPE [C22V] | 2.13 |
| FAHSSNLLRHQRIHTGERPYKWPE [C22W] | 2.08 |
| FAHSSNLLRHQRIHTGERPYKYPE [C22Y] | 2.44 |
| FAHSSNLLRHQRIHTGERPYKCAE [P23A] | 2.54 |
| FAHSSNLLRHQRIHTGERPYKCCE [P23C] | 1.64 |
| FAHSSNLLRHQRIHTGERPYKCDE [P23D] | 2.47 |
| FAHSSNLLRHQRIHTGERPYKCEE [P23E] | 2.67 |
| FAHSSNLLRHQRIHTGERPYKCFE [P23F] | 2.11 |
| FAHSSNLLRHQRIHTGERPYKCGE [P23G] | 2.82 |
| FAHSSNLLRHQRIHTGERPYKCHE [P23H] | 2.36 |
| FAHSSNLLRHQRIHTGERPYKCIE [P23I] | 2.58 |
| FAHSSNLLRHQRIHTGERPYKCKE [P23K] | 2.52 |
| FAHSSNLLRHQRIHTGERPYKCLE [P23L] | 2.12 |
| FAHSSNLLRHQRIHTGERPYKCME [P23M] | 2.2 |
| FAHSSNLLRHQRIHTGERPYKCNE [P23N] | 2.56 |
| FAHSSNLLRHQRIHTGERPYKCQE [P23Q] | 3 |
| FAHSSNLLRHQRIHTGERPYKCRE [P23R] | 1.95 |
| FAHSSNLLRHQRIHTGERPYKCSE [P23S] | 2.41 |
| FAHSSNLLRHQRIHTGERPYKCTE [P23T] | 2.29 |
| FAHSSNLLRHQRIHTGERPYKCVE [P23V] | 1.87 |

| Variant | protein stability index |
| --- | --- |
| FAHSSNLLRHQRIHTGERPYKCWE [P23W] | 2.2 |
| FAHSSNLLRHQRIHTGERPYKCYE [P23Y] | 2.5 |
| FAHSSNLLRHQRIHTGERPYKCPA [E24A] | 1.89 |
| FAHSSNLLRHQRIHTGERPYKCPC [E24C] | 1.56 |
| FAHSSNLLRHQRIHTGERPYKCPD [E24D] | 2.44 |
| FAHSSNLLRHQRIHTGERPYKCPF [E24F] | 1.59 |
| FAHSSNLLRHQRIHTGERPYKCPG [E24G] | 1.92 |
| FAHSSNLLRHQRIHTGERPYKCPH [E24H] | 2.16 |
| FAHSSNLLRHQRIHTGERPYKCPI [E24I] | 1.7 |
| FAHSSNLLRHQRIHTGERPYKCPK [E24K] | 2.46 |
| FAHSSNLLRHQRIHTGERPYKCPL [E24L] | 1.48 |
| FAHSSNLLRHQRIHTGERPYKCPM [E24M] | 2.4 |
| FAHSSNLLRHQRIHTGERPYKCPN [E24N] | 1.88 |
| FAHSSNLLRHQRIHTGERPYKCPP [E24P] | 1.87 |
| FAHSSNLLRHQRIHTGERPYKCPQ [E24Q] | 2.33 |
| FAHSSNLLRHQRIHTGERPYKCPR [E24R] | 2.15 |
| FAHSSNLLRHQRIHTGERPYKCPS [E24S] | 1.84 |
| FAHSSNLLRHQRIHTGERPYKCPT [E24T] | 1.87 |
| FAHSSNLLRHQRIHTGERPYKCPV [E24V] | 1.56 |
| FAHSSNLLRHQRIHTGERPYKCPW [E24W] | 2.72 |
| FAHSSNLLRHQRIHTGERPYKCPY [E24Y] | 2.28 |

Variants of: B2
Assay: as above
Conditions: c terminus: a fixed tail appended

| Variant | protein stability index |
| --- | --- |
| VLRSRIRGIHLVTGCVLGSSGKVL [F8G] | 1.66 |
| VLRSRIRFIHLNTGCVLGSSGKVL [V12N] | 3.83 |
| VLRSRIRFIHNVTGCVLGSSGKVL [L11N] | 2.07 |
| VLRSRIRFIHLFTGCVLGSSGKVL [V12F] | 3.19 |
| VLRYRIRFIHLVTGCVLGSSGKVL [S4Y] | 3.18 |
| VLRSRIRFMHLVTGCVLGSSGKVL [I9M] | 2.73 |
| VLRSRIRFIHLVTMCVLGSSGKVL [G14M] | 1.85 |
| VLRSRIRFIHLVTGCVYGSSGKVL [L17Y] | 4.34 |
| VLRSRIRFIHLVTGCVFGSSGKVL [L17F] | 1.62 |
| VLRSRIRFIHLVTGCVLGNSGKVL [S19N] | 2.73 |
| VLRSRIRFIHLVTGCVLGMSGKVL [S19M] | 3.45 |
| VLRSRIRTIHLVTGCVLGSSGKVL [F8T] | 2.35 |
| VLRSRIRQIHLVTGCVLGSSGKVL [F8Q] | 1.67 |
| VLRSRIRFIHLVTGCVLGSSGKYL [V23Y] | 2.47 |
| VLRSRIRFIHLVQGCVLGSSGKVL [T13Q] | 2.86 |
| VLRSRIRFIHLVTGCVLGSSPKVL [G21P] | 2.65 |
| VMRSRIRFIHLVTGCVLGSSGKVL [L2M] | 2.49 |
| VLRSRIRFIHLVTGTVLGSSGKVL [C15T] | 1.4 |
| VLRSRIRFIHLVTGCPLGSSGKVL [V16P] | 4.02 |
| VIRSRIRFIHLVTGCVLGSSGKVL [L2I] | 2.71 |
| VLRSRIRFPHLVTGCVLGSSGKVL [I9P] | 1.42 |
| VLRSRIRFIHGVTGCVLGSSGKVL [L11G] | 2.18 |
| VLRSRIPFIHLVTGCVLGSSGKVL [R7P] | 2.44 |
| VLPSRIRFIHLVTGCVLGSSGKVL [R3P] | 3.15 |
| MLRSRIRFIHLVTGCVLGSSGKVL [V1M] | 3.35 |
| VLRSRIRFIHLVTGCVLGSSRKVL [G21R] | 2.47 |

| Variant | protein stability index |
| --- | --- |
| VLRSRIRFIHLVTGCYLGSSGKVL [V16Y] | 3.11 |
| VCRSRIRFIHLVTGCVLGSSGKVL [L2C] | 2.48 |
| VLRSRYRFIHLVTGCVLGSSGKVL [I6Y] | 3.93 |
| VLRSRLRFIHLVTGCVLGSSGKVL [I6L] | 2.83 |
| VLRSRIRFIHCVTGCVLGSSGKVL [L11C] | 3.74 |
| VLRSRIRFIWLVTGCVLGSSGKVL [H10W] | 2.63 |
| VLRSIIRFIHLVTGCVLGSSGKVL [R5I] | 2.1 |
| NLRSRIRFIHLVTGCVLGSSGKVL [V1N] | 3.04 |
| VLRSRIRFIDLVTGCVLGSSGKVL [H10D] | 2.56 |
| VLRSRIRFIHLVTGCVLASSGKVL [G18A] | 2.35 |
| VLRSRIRFIHLVTGCVAGSSGKVL [L17A] | 2.77 |
| VLRSRIRFIHLKTGCVLGSSGKVL [V12K] | 3.48 |
| RLRSRIRFIHLVTGCVLGSSGKVL [V1R] | 1.96 |
| VLRSRIRFIHLVTGNVLGSSGKVL [C15N] | 1.4 |
| VLRSRIRSIHLVTGCVLGSSGKVL [F8S] | 1.57 |
| VLRSRIRFIHLVHGCVLGSSGKVL [T13H] | 2.02 |
| VLRSRIRFIHLVTGCVLGRSGKVL [S19R] | 2.41 |
| VLRSRDRFIHLVTGCVLGSSGKVL [I6D] | 1.89 |
| VLRVRIRFIHLVTGCVLGSSGKVL [S4V] | 2.38 |
| VLRSRIRFIHLVTGCVLISSGKVL [G18I] | 2.37 |
| VLRSRIRFIHLVTGCQLGSSGKVL [V16Q] | 2.89 |
| VLRSRIRFIHLVTKCVLGSSGKVL [G14K] | 3.83 |
| VLMSRIRFIHLVTGCVLGSSGKVL [R3M] | 3.2 |
| VLRSRIRFIKLVTGCVLGSSGKVL [H10K] | 1.58 |
| VLRSGIRFIHLVTGCVLGSSGKVL [R5G] | 2.25 |
| VLRSRIRFIHLVTGCVLGKSGKVL [S19K] | 1.67 |

— the supplement of paper PMC10567573
